The results in this text go back to the DeepSol protein solubility set.

The data set can be described thus: soluble on expression in E. coli; label from the status in PepcDB or PDB records.
With “MALDNRHRLIVGKLAEAFGLPENVIEKTLTQDKQAVNSFFTPAGPPSLVFVYQVKEDKLKDGSVGPVDNKPTLHRIGPHERIHNKGVYFTRLNPKGINEKTLEADMGSGELSGGALENFKAIVSDLYLPIMQEQQQWGKMSTEYLEDFLSSTAKFGSMLTEAVATVSGGVELRMPDPRYIDQYGDLRPAGITQAAGDDDTLQEMEECLTEWCREAELLLNQTNKIKDGEEPGPDTELEYWRTRMSNFNSITEHLKTKECKLVLGICSHAKTKAYLRWRALDVQITDAANESKDNVKYLATLEKSMEPMYQGRVTDITESLPALMTNVRMMYTIARFYSTAEHMTRLFTKITNQLVRRCKEQIMENGKIWDQDKVTLIGNMKVSVELANVYRQQYRLAKETLAAQPKSKQFDFDEQAIFLKFDLFSKRLHKLIDMFTTIHQFSSLEQHTHIEGLDTMLKSLNNIIDDVKRKPYDLLDYSRNAFDRDFLEFNVQINDLELQLQGFVNASFEHITSTEHALSLLAQFQAIMQRETLQQDLENKYMVIFQNYAKDLDAVQKLYEKNKYEPPVPRNAPPVAGNIMWARQLLRRIEAPMQRFAQNKNLLAAKESKKIIKTYNKVAKALIEFETLWHQAWIKSIEQCKAGLAAPLLVQHPDTGKILVNFDKEIMQLVREAKYMQRFNIAVPESAQMVLLQEEKFKFYHNQLTHLVREYEHVLGRVAPTIKPLLRPHLDDMERKIAPGFAVLTWTSLNIDGYLHRFKQGLARLEELVRKVVDLTENRVDSNLGAISSTLLVELPTDRSFTYEEFVSTQNRFQKKQAELLAIRNEEVRRAIEDLLTLVRNYPRENTEDVLDEKEVSLFVRHYSKNMYNAIMQCTLNSLQAMKRRLGSKTTTGIFFMERPFFDVDVELKVPSVCMNPTLEEIQAAINQCAKKVLTISKQLPAWGMDNVATYHEMIAGDKEVVKAVLRLTGSVEGIKTQVGEYIRTFDKYDFLWKEDLQAAYDHFMRSNPTLEAFEAELKKYMAIETEVTMINGVNNIGALSLETMPLKNSLKAEAVSWKTQFAQNLHKQCSDDLKAFDNYIRDTNSKFHRKIEDLEDVRNVMAVLKEVREKESEIDNLIGPIEEMYGLLMRYEVRVPKEETTMVSDLRYGWKKLKKVATEVSDNLTRLQVGFKRELIKEVKTFVVDAQMFRKDWEANGPMVPGLDPQEAVDRLRKFQQMFEVRKRKWENYSSGEELFGLPVTQYPELEQTEKEIQMLDRLYSLYVAVITTIKGYGDYFWVDVVEKIDEMGEQVQQYQNQSKKLPKALRDWPAYNACRKTIDDFLEMLPLFQALTHKSMRERHWKEVMRVTGHELNLAEDHFKLQHLLDCNVLRYREDIEDLTGAAVKEEIIEVKLNQLKADWATANLAFAEYKNRGPVILKPSDTSELMEKLEESQMTLGSMATNRYSAPFRDEVQAWSIKLSTVSEIIEQWLMVQSMWQYMEAVF”, the “soluble on expression in E. coli” value is “not soluble”. Next, “MSNNNLSVISLVSIGEHPTSRRPRRAEQDARAIELGLKLVGDNLQTLHAGELSDDASQQTALRSYLGMGLAEINLLEMPENADAVLVIAEYLKQQKIDIILTGVCAESGESSGMLPYLLAEQLGMAMVTSIAEILSIDEVNKQAEVLQALPRGQRRKLKVDLPFIASVDMAAALPRQSAFGPAMRGQFEATLGANFTDEESSTWQTADAKKRPKRLKIIKAKTAADRFKAATAKASGGGGKVVHGVEESAQAILDLLIEEGLV”: “not soluble”.

For the sequence “GSHMQTHAARMRTFMYWPSSVPVQPEQLASAGFYYVGRNDDVKCFCCDGGLRCWESGDDPWVEHAKWFPRCEFLIRMKGQEFVDEIQGRYPHLLEQLLSTS”, the “soluble on expression in E. coli” value was “soluble”. For “MTTYPADTPIITQPPSPDSPSSSNGSSTSLSENLNNNSVSNQIEYVNQNNNSDNFTVGLGFLGASGNYGNYSSHLNNNLSISQNQSVSLNSSSSSVGAGLTPGNGSVGSTSNSSSAASSIQNIGLNSSLINSNTNNLSSSSHSMSGSNNNNSNNNVVNNYLTVYGNNGSSGGGSGSGGGSGPGADSPRIHCCRPCCPYSHHRRLCDPCYCSNRPESHRDSSSSEEVNDAQSDENTYFQFDFIGVDGHHARRVLPPSWRILRNSKAESSDESSLSDAVQTVDLPKIPQKKIRCVYSIDAEEIEGKKCMLECIRSSCLPRYVECHRRRRCSRKQRCHTTTQPPSPTTESLPTSTTTYEMNTTSLETSTTDISTITSTEEPISTTVKTHEQSSTSGMEFSTMSTTYEPITTTLETSTTDISIITSTEEPDTSTTTESNEQSSTTGMEFSTMSTTYEPITTSLETSTTDMLTNTSTEEPDISTTIEPNAQSTTYEMESSTVSVTYEPETTSLETSSTKVSSTTATGEPASTTMEANEHSSTFETESSTVPATNEPITTSFIPSTTDLSIITSTEEAKISTTMETDELSTTTESSYSTTQFTTFKIPTSSFSTLPMEGTSTKEQTTLSTEETSSATTATIFEKLSTTLFFEETQVTSTSDFTSSPRSIETTRVIEFDTSTELQTTSKTSTTTEDTTTVGTTTEMEMRRFWRLFG”, the “soluble on expression in E. coli” value is reported as “not soluble”. In the case of “MGSDKIHHHHHHMDAMPSTTAITVSQLSRLVGLPGVPVIIDVRIDEDFDADPRLLPASIRRDFKTVSTWAPDFAGKPVVVVCQKGLKLSQGVAAWLRHEGIPAESLEGGFEAWREADGLLVSTDKLPPRDEKGRTVWVTRSRPKVDRIACPWLIRRFVDPRAVFLFVEAAEVPAVADRFQAVPFDIDNVFWSHRGERCTFDTMIEEFGLESTALDRLAAIVRAADTARLDLVPQAAGFLAASLGLSRMFRDDLEQLEAGMLLYDAFFRWCRDATEETHNWPSAGKPS”, the “soluble on expression in E. coli” value was “not soluble”. Consider “MELKSTRHTKYLCNYHFVWIPKHRRNTLVNEIAEYTKEVLKSIAEELGCEIIALEVMPDHIHLFVNCPPRYAPSYLANYFKGKSARLILKKFPQLNKGKLWTRSYFVATAGNVSSEVIKKYIEEQWRKEGEEE”, for which the “soluble on expression in E. coli” value is “soluble”.

Take “GSAAATGPSFWLGNETLKVPLALFALNRQRLCERLRKNPAVQAGSIVVLQGGEETQRYCTDTGVLFRQESFFHWAFGVTEPGCYGVIDVDTGKSTLFVPRLPASHATWMGKIHSKEHFKEKYAVDDVQYVDEIASVLTSQKPSVLLTLRGVNTDSGSVCREASFDGISKFEVNNTILHPEIVECRVFKTDMELEVLRYTNKISSEAHREVMKAVKVGMKEYELESLFEHYCYSRGGMRHSSYTCICGSGENSAVLHYGHAGAPNDRTIQNGDMCLFDMGGEYYCFASDITCSFPANGKFTADQKAVYEAVLRSSRAVMGAMKPGVWWPDMHRLADRIHLEELAHMGILSGSVDAMVQAHLGAVFMPHGLGHFLGIDVHDVGGYPEGVERIDEPGLRSLRTARHLQPGMVLTVEPGIYFIDHLLDEALADPARASFFNREVLQRFRGFGGVRIEEDVVVTDSGIELLTCVPRTVEEIEACMAGCDKAFTPFSGPK”: the “soluble on expression in E. coli” value was “soluble”. Next, “MGSDKIHHHHHHMRLVQYRMPDGSRRVGRVSDDDNHLHPLDKTGSVLELAEAAIAEDMSIASLVEKRTAAATIDYDALLRNGRVLAPVDHPEPARFLVTGTGLTHTGSAAARNQMHVLTHGDGAEESDSLKIFRMGLEGGKPGAGKIGIQPEWFFKGVGTCVVPPGAPLPMPAFAKAGAEEAEIVGLYLNGPDGHPYRIGYALGNEYSDHVTEGENYLYLAHSKLRSCSIGPELLIGDLPEEVRGHSRILRDGTVIWEQEFLSGEAHMSHSIANLEHFHFRYPMHRRAGDLHAYFFGAAVMSYASGIKTASGDEYEIQAQAFGKPLRNRMVSVPDEGLVTVTPL”: “not soluble”. Take “MGSDKIHHHHHHMCTVQSNITSHVKKLEEELGVILLNRHNPVTLTNAGHQLHSYAVQMIALHNKAKTIFREGDIDPNETIRLGSMETTAAIRLPQLLNECMQQHPNLPLELQTHPTGYLLNAVQQGEVDCAFVASKYVIPELYSFPVWQEQLVLVCPKQQIDFPDIATLAKTRFIAFRQGCSYRHAIELFLNDHSVPPSQIMEMGSLDGIVSCVELGVGFALLPKSYLNKVADKVSLSCFEINTESAHFTTYLVAQPPETWGSNLKQFICFIEQQFIQKCA”: the “soluble on expression in E. coli” value is “not soluble”.
